Measured values taken from publication PMC314469, “Protein Interaction Networks by Proteome Peptide Scanning” (PLoS Biology, 2004).

T1: Yhr016c SH3 (YSC84_YEAST), P32793
T1 chain: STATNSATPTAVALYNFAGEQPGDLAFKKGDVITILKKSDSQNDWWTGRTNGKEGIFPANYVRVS

T2: Rvs167 SH3 (RV167_YEAST), P39743
T2 chain: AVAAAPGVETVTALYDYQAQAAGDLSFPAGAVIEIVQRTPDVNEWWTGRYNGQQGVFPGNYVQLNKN

T3: Boi1 SH3 (BOI1_YEAST), P38041
T3 chain: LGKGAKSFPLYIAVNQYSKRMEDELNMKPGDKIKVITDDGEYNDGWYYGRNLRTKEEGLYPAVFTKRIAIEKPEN

T4: Boi2 SH3 (BOI2_YEAST), P39969
T4 chain: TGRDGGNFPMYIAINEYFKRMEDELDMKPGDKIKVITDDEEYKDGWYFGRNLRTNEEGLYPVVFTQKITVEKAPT

T5: Yfr024 SH3 (LSB3_YEAST), P43603
T5 chain: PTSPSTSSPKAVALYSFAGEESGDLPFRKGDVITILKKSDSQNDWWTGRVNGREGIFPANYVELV


Experiments:
Assay in all cases: SPOT array
[1] = molecular target: T1, Yhr016c SH3 (YSC84_YEAST), P32793
[2] = molecular target: T2, Rvs167 SH3 (RV167_YEAST), P39743
[3] = molecular target: T3, Boi1 SH3 (BOI1_YEAST), P38041
[4] = molecular target: T4, Boi2 SH3 (BOI2_YEAST), P39969
[5] = molecular target: T5, Yfr024 SH3 (LSB3_YEAST), P43603

Binder | normalised SPOT signal, Boehringer light units (BLU); mean over the file's lines of this peptide [1] | normalised SPOT signal, Boehringer light units (BLU); mean over the file's lines of this peptide [2] | normalised SPOT signal, Boehringer light units (BLU); mean over the file's lines of this peptide [3] | normalised SPOT signal, Boehringer light units (BLU); mean over the file's lines of this peptide [4] | normalised SPOT signal, Boehringer light units (BLU); mean over the file's lines of this peptide [5]
AKQPKEPKKRTTRR [YBR089C-A 7-20] | 78 | 130 | 196 | 105 | 854
AFVPTNPWRSSMSL [YIL162W 315-328] | 58.7 | 57 | 294 | 39.8 | 840
AIEPGVPSRYSDET [YDL246C 91-104] | 153 | 35.9 | 63 | 22.8 | 151
AAWPLDPARERWTR [YGR031W 269-282] | 134 | 25.5 | 549 | 52.7 | 300
AKSPLLPFKLLSDR [YCL073C 330-343] | 229 | 45.1 | 84.8 | 46.2 | 4310
YTLPLLPGKGGFRI [YFR048W 228-241] | 96.3 | 28.3 | 107 | 20.3 | 474
YSNPQTPLRSLAGL [YDR420W 1404-1417] | 1600 | 260 | 80.5 | 104 | 2680
YTNPRAPGKLQDSH [YIL054W 33-46] | 238 | 64.7 | 153 | 26.1 | 478
AAQPPLPSRNVASG [YCR088W 446-459] | 107000 | 59700 | 98.4 | 62.8 | 47300
ASLPVGPRKNGMNV [YAR061W 26-39] | 167 | 170 | 158 | 88 | 619
AGTPNVPTRRPILK [YIR003W 42-55] | 4390 | 448 | 4210 | 26.9 | 24700
YSLPMHPGRWWVHT [YHR072W 222-235] | 308 | 78.1 | 79.5 | 158 | 712
AGSPIRPYKQRYLL [YGL073W 526-539] | 180 | 343 | 744 | 352 | 1770

The remaining lines, values ahead:

normalised SPOT signal, Boehringer light units (BLU); mean over the file's lines of this peptide [1] | normalised SPOT signal, Boehringer light units (BLU); mean over the file's lines of this peptide [2] | normalised SPOT signal, Boehringer light units (BLU); mean over the file's lines of this peptide [3] | normalised SPOT signal, Boehringer light units (BLU); mean over the file's lines of this peptide [4] | normalised SPOT signal, Boehringer light units (BLU); mean over the file's lines of this peptide [5] | Binder
194 | 109 | 173 | 198 | 4960 | AARPTRPDKARRLG [YLR029C 39-52]
102 | 0 | 69.5 | 33.5 | 1260 | AGQPEIPLKSNNKS [YKL104C 225-238]
36 | 49.9 | 0 | 12.4 | 0 | YYGPNSPLKLDEEN [YKL108W 203-216]
895 | 279 | 138 | 162 | 6490 | AGHPMKPHRIRMAH [YNL330C 36-49]
365 | 90.7 | 208 | 146 | 1060 | YRYPQTPMRLEIAV [YLR213C 295-308]
80.5 | 21.3 | 95.9 | 71.9 | 351 | YRIPDDPRKSQNKS [YKL178C 366-379]
27400 | 1060 | 42.6 | 53.6 | 28800 | YTTPKTPPRPKTIL [YKR028W 957-970]
6020 | 186 | 10.1 | 23.8 | 11200 | AIPPPVPNRPGGTT [YLR144C 7-20]
168 | 25.1 | 104 | 231 | 1590 | YWAPVSPLKSINLF [YLR305C 1424-1437]
